Assays:
[1] = test system: AncSZ; assay: phosphorylation enrichment, bacterial display (enrichment ratio); higher = better substrate or ligand; peptides without Tyr show the background
[2] = molecular target: EPHB1 (UniProt P54762); assay: as above
[3] = molecular target: EPHB2 (UniProt P29323); assay: as above
[4] = molecular target: FGFR1 (UniProt P11362); assay: as above
[5] = molecular target: FGFR3 (UniProt P22607); assay: as above
[6] = test system: Fer (mouse); assay: as above
[7] = molecular target: Fes (UniProt P07332); assay: as above
[8] = molecular target: Fyn (UniProt P06241); assay: as above
Chain of Fyn (P06241 whole entry, looked up): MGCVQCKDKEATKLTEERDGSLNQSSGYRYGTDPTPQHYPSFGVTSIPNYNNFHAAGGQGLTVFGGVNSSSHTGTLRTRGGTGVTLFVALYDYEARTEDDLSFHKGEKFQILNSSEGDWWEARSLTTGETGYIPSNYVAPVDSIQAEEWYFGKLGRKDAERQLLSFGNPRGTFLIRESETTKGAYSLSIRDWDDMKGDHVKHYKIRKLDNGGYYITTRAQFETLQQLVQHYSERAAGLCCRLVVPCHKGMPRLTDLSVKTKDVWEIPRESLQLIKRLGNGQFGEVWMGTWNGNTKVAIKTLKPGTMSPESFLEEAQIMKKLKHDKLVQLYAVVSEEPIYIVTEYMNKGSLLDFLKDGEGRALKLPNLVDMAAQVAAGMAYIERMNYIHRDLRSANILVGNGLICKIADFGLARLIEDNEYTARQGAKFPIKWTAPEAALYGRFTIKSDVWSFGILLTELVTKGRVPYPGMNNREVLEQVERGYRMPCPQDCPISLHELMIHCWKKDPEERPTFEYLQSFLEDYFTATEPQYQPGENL

[9] = molecular target: Hck (UniProt P08631); assay: as above
Chain of Hck (P08631 whole entry, looked up): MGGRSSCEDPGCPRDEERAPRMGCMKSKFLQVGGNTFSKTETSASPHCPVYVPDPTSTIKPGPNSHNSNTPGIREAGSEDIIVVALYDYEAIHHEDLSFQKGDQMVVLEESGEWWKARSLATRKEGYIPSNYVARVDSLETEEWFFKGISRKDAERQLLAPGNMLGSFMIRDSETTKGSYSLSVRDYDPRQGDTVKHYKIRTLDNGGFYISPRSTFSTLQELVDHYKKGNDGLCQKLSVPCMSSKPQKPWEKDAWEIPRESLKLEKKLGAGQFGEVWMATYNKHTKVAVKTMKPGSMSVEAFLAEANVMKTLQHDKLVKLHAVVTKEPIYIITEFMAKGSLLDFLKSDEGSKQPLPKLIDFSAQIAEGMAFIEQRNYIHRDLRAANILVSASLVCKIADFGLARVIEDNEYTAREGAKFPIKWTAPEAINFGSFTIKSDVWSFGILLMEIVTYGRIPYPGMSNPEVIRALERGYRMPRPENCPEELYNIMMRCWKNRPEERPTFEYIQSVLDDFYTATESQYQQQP

[10] = molecular target: Jak2 (UniProt O60674); assay: as above
Chain of Jak2 (O60674 whole entry, looked up): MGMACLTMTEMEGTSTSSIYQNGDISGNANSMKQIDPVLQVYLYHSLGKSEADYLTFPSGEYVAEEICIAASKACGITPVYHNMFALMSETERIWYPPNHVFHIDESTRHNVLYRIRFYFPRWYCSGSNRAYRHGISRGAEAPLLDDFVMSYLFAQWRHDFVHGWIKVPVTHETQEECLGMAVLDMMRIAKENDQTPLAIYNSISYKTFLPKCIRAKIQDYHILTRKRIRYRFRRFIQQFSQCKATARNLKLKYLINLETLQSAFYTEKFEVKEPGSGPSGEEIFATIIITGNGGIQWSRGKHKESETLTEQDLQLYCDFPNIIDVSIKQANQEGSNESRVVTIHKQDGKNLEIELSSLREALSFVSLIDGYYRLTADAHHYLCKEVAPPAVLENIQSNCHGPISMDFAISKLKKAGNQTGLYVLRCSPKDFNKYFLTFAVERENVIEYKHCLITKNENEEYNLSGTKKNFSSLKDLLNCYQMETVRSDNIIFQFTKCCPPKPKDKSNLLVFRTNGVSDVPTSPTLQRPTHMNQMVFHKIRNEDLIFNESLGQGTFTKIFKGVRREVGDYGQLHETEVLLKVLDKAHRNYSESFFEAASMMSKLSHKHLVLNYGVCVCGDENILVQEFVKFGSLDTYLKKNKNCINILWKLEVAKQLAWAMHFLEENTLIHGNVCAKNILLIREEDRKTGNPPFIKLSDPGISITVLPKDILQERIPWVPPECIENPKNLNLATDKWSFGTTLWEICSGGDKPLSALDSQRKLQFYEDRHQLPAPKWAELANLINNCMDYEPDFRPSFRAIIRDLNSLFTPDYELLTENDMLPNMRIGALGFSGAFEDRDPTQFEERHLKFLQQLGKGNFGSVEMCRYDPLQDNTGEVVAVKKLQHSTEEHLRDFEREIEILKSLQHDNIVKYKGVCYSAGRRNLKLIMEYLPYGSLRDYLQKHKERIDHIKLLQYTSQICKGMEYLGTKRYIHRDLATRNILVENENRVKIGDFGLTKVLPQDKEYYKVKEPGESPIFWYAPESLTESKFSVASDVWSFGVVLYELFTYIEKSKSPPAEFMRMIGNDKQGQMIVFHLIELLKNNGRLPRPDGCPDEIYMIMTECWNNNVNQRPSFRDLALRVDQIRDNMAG

[11] = molecular target: MERTK (UniProt Q12866); assay: as above
[12] = test system: c-Abl (mouse); assay: as above
[13] = test system: c-Src; assay: as above
[14] = molecular target: Grb2 SH2 (UniProt P62993); assay: SH2 binding enrichment of the phosphorylated peptide, bacterial display (enrichment ratio); higher = better substrate or ligand; peptides without Tyr show the background
[15] = molecular target: SHP2-C SH2; assay: as above
[16] = molecular target: c-Src SH2; assay: as above
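For SH2 binding enrichment of the phosphorylated peptide, bacterial display in this document: peptide library displayed on the E. coli surface as eCPX fusions, selected cells deep-sequenced, score is each peptide's frequency after selection divided by its frequency in the input.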
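For phosphorylation enrichment, bacterial display in this document: 11-residue human phosphosite peptides and single-mutation variants displayed on the E. coli surface, counted by deep sequencing, each peptide's frequency after selection divided by its frequency in the unselected input library; frequency after pTyr selection over input frequency; kinase dosed for 20-30% of maximal phosphorylation in three min.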

Chain of FGFR1 (P11362 whole entry, looked up): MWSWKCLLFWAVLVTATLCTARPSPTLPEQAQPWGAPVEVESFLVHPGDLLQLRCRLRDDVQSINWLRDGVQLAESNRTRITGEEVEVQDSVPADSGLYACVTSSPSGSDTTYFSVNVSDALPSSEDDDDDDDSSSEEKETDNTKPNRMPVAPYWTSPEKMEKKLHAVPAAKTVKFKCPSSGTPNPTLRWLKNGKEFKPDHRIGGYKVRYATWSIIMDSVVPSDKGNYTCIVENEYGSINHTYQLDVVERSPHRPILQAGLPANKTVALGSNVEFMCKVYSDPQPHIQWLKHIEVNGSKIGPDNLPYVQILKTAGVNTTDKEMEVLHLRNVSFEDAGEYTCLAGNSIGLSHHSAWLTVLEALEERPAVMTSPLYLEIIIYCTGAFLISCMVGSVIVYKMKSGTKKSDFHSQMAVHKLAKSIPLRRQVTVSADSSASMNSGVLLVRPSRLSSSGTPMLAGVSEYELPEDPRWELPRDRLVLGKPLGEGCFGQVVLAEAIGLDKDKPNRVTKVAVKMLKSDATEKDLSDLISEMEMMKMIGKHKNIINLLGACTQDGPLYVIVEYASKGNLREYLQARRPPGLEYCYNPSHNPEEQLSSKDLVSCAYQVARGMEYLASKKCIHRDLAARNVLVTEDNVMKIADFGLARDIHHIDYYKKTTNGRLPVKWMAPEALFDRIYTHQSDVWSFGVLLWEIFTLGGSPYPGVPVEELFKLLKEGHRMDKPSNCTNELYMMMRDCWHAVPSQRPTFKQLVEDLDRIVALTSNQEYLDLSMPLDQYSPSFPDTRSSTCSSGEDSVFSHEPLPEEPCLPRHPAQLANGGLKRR
Chain of EPHB1 (P54762 whole entry, looked up): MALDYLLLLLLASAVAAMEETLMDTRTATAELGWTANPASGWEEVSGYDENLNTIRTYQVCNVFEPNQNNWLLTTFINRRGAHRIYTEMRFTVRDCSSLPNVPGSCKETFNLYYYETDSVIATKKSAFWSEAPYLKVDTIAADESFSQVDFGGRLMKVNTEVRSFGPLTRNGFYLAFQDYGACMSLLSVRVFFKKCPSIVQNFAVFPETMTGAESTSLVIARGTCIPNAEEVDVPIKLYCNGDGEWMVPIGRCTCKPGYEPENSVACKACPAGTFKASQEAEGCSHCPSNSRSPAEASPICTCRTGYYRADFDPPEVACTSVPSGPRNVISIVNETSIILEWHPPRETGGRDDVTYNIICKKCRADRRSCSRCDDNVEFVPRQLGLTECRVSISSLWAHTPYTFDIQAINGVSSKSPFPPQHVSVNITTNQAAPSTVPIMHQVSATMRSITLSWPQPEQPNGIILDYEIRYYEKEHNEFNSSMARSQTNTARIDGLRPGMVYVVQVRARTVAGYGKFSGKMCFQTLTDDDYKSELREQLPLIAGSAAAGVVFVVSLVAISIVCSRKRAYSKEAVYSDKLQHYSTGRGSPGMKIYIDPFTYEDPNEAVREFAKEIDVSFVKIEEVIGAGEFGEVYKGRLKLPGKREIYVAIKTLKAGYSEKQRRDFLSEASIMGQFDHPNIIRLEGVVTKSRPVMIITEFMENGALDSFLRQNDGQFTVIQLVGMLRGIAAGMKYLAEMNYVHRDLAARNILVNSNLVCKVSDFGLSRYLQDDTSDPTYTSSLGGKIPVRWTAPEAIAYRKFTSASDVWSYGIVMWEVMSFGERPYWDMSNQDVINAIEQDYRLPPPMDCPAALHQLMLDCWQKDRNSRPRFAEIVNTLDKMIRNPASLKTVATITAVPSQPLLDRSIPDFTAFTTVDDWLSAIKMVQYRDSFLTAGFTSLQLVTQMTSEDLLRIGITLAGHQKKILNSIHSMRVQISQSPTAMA
Chain of EPHB2 (P29323 whole entry, looked up): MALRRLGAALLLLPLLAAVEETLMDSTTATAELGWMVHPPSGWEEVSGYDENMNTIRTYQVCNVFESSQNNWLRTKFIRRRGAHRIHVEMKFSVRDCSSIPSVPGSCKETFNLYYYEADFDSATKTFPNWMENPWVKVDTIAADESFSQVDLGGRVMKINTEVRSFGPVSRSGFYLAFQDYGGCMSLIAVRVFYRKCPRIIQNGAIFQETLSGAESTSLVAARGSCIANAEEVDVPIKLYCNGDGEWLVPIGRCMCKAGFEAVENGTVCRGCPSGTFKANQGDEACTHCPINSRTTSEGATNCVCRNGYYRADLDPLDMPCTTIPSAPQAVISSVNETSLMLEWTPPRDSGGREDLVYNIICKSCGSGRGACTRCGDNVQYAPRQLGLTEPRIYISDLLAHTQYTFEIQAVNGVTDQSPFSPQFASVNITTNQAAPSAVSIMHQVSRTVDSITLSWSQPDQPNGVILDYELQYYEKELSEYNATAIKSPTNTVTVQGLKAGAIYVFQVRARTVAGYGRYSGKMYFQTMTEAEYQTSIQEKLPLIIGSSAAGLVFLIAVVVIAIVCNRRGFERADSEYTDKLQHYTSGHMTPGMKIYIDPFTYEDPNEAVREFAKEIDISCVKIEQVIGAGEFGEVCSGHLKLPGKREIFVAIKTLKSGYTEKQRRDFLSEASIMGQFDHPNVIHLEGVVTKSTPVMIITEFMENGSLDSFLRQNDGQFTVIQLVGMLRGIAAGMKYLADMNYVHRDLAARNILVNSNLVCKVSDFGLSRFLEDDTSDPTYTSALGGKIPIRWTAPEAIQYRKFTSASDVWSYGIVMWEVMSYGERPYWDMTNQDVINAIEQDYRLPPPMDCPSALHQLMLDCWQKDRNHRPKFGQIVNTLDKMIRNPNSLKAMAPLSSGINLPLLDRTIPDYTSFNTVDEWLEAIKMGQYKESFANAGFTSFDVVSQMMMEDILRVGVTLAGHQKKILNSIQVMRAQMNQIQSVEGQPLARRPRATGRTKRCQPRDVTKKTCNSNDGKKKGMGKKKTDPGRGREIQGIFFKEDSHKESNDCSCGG

SH2 binding enrichment [14] | SH2 binding enrichment [15] | SH2 binding enrichment [16] | Sequence | phosphorylation enrichment [1] | phosphorylation enrichment [2] | phosphorylation enrichment [3] | phosphorylation enrichment [4] | phosphorylation enrichment [5] | phosphorylation enrichment [6] | phosphorylation enrichment [7] | phosphorylation enrichment [8] | phosphorylation enrichment [9] | phosphorylation enrichment [10] | phosphorylation enrichment [11] | phosphorylation enrichment [12] | phosphorylation enrichment [13]
1.01 | 0.548 | 0.353 | FGSSSYRGAGG [RPA2_Y14_G15R_YF] | 0.64 | 0.431 | 0.551 | 0.551 | 0.584 | 0.409 | 0.876 | 0.494 | 0.523 | 0.692 | 0.568 | 0.998 | 0.659
0.99 | 0.998 | 0.598 | GRMLQYLTVND [PPFIBP2_Y663_R658G] | 0.792 | 0.52 | 0.477 | 0.51 | 0.575 | 0.42 | 0.97 | 0.401 | 0.489 | 0.811 | 0.319 | 0.593 | 0.436
0.828 | 0.67 | 0.488 | MSPPGYKLLTG [GJA1_Y286_V289L] | 0.625 | 0.542 | 0.891 | 0.515 | 0.599 | 0.474 | 0.756 | 0.454 | 0.405 | 0.669 | 0.465 | 0.731 | 0.503
1.54 | 1.46 | 1.2 | YPKARYHWLVL [APTX_Y214] | 0.95 | 0.507 | 0.552 | 0.582 | 0.67 | 0.539 | 1.08 | 0.429 | 0.493 | 0.941 | 0.482 | 0.707 | 0.383
0.834 | 0.503 | 0.438 | RELGKYGLQAF [ALDH2_Y497_E496K_YF] | 1 | 0.489 | 0.577 | 0.578 | 0.582 | 0.537 | 0.926 | 0.526 | 0.584 | 0.774 | 0.612 | 0.786 | 0.491
0.852 | 0.63 | 0.58 | EQQDMYRLKVL [ABCC6_Y372_N370D] | 0.774 | 0.354 | 0.482 | 0.451 | 0.581 | 0.473 | 0.773 | 0.387 | 0.427 | 0.638 | 0.376 | 0.453 | 0.415
0.839 | 0.784 | 0.427 | GVLDIYGFDIL [MYO1A_Y382_E385D] | 0.978 | 0.67 | 0.566 | 0.448 | 0.621 | 0.524 | 1.07 | 3.78 | 2.12 | 0.955 | 0.465 | 0.69 | 2.69
0.746 | 0.825 | 0.487 | VDDQIYYFRKP [PBRM1_Y1289_E1287Q] | 2.93 | 1.08 | 0.98 | 8.8 | 7.78 | 1.75 | 1.23 | 8.3 | 8.88 | 2.07 | 5.41 | 12.8 | 6.28
0.87 | 0.707 | 0.941 | YRDMDYRSYPR [RBM10_Y41] | 0.64 | 0.477 | 0.475 | 2.3 | 1.37 | 0.415 | 0.895 | 0.402 | 0.4 | 0.55 | 0.519 | 0.607 | 0.547
0.874 | 0.661 | 0.931 | CTTIDYNFMCN [TP53_Y234_H233D_YF] | 1.27 | 0.474 | 0.651 | 0.882 | 0.911 | 0.597 | 1.27 | 0.527 | 0.528 | 1.21 | 0.529 | 1.04 | 0.874
1.09 | 0.753 | 0.736 | IEDPFYGNDFD [ACP1_Y133_S137F_YF] | 1.27 | 0.83 | 0.644 | 0.548 | 0.806 | 0.509 | 1.21 | 0.566 | 0.595 | 0.972 | 0.392 | 0.79 | 0.544
0.901 | 0.593 | 0.348 | RTVDVYFGPRM [KIRREL3_Y332] | 1.15 | 0.643 | 1.33 | 0.758 | 1.23 | 0.711 | 1.14 | 1.06 | 1.5 | 0.618 | 0.591 | 0.65 | 0.72
0.881 | 0.455 | 0.456 | LEPGIYIPEDD [XPNPEP3_Y455_I450L] | 1.58 | 0.716 | 0.717 | 0.556 | 1.22 | 0.709 | 1.5 | 0.705 | 0.558 | 1.24 | 0.653 | 0.974 | 0.518
0.894 | 0.645 | 0.571 | WQQQSYLDSRI [CTNNB1_Y30_G34R] | 0.675 | 0.444 | 0.473 | 0.484 | 0.496 | 0.455 | 0.793 | 0.465 | 0.476 | 0.623 | 0.515 | 0.482 | 0.4
0.898 | 0.841 | 0.726 | QITQVYGFFDE [PPP2CA_Y127_YF] | 1.81 | 1.28 | 0.97 | 0.836 | 1.08 | 1.39 | 1.81 | 14.9 | 6.92 | 1.33 | 2.32 | 1.06 | 8.8
0.538 | 0.526 | 0.384 | RRGMPYGGRGD [TGM1_Y312] | 0.878 | 0.839 | 0.881 | 0.686 | 0.904 | 0.746 | 0.618 | 0.749 | 0.739 | 0.686 | 0.871 | 0.75 | 0.68
0.884 | 0.634 | 0.393 | RLQKLYLDRNL [IGFALS_Y248] | 0.812 | 1.4 | 0.43 | 0.776 | 0.787 | 0.795 | 1.23 | 0.811 | 0.975 | 1.63 | 0.868 | 1.16 | 0.851
